Bridges are numbered along the chain shown (N, C = ends). Where no end group is shown, it is not given here. [ ]: non-standard residue; d: D form. Bip = N[C@@H](Cc1ccc(-c2ccccc2)cc1)C(=O)O; 2Nal = N[C@@H](Cc1ccc2ccccc2c1)C(=O)O; d2Nal = N[C@H](Cc1ccc2ccccc2c1)C(=O)O; hArg = N=C(N)NCCCC[C@H](N)C(=O)O; 3Pal = N[C@@H](Cc1cccnc1)C(=O)O; Pen = CC(C)(S)[C@H](N)C(=O)O; Nle = CCCC[C@H](N)C(=O)O; Bal = not defined here; GABA = NCCCC(=O)O; βAla = NCCC(=O)O
B1: Ac-Nle-c(Asp-D-Ala-His-D-Phe-Arg-Trp-Lys)-NH2 (peptide)
chain: Ac-[Nle]D[dA]H[dF]RWK-NH2
modifications: lactam 2-8
SMILES: CCCC[C@H](NC(C)=O)C(=O)N[C@H]1CC(=O)NCCCC[C@@H](C(N)=O)NC(=O)[C@H](Cc2c[nH]c3ccccc23)NC(=O)[C@H](CCCNC(=N)N)NC(=O)[C@@H](Cc2ccccc2)NC(=O)[C@H](Cc2c[nH]cn2)NC(=O)[C@@H](C)NC1=O
B2: Ac-Nle-c(Cys-D-Ala-His-D-Phe-Arg-Trp-Gly-Cys)-NH2 (peptide)
chain: Ac-[Nle]C[dA]H[dF]RWGC-NH2
modifications: disulfide 2-9
SMILES: CCCC[C@H](NC(C)=O)C(=O)N[C@H]1CSSC[C@@H](C(N)=O)NC(=O)CNC(=O)[C@H](Cc2c[nH]c3ccccc23)NC(=O)[C@H](CCCNC(=N)N)NC(=O)[C@@H](Cc2ccccc2)NC(=O)[C@H](Cc2c[nH]cn2)NC(=O)[C@@H](C)NC1=O
B3: Ac-D-Arg-c(Cys-His-D-Phe-Arg-Trp-Gaba-Pen)-NH2 (peptide)
chain: Ac-[dR]CH[dF]RW[GABA][Pen]-NH2
modifications: disulfide 2-8
SMILES: CC(=O)N[C@H](CCCNC(=N)N)C(=O)N[C@H]1CSSC(C)(C)[C@@H](C(N)=O)NC(=O)CCCNC(=O)[C@H](Cc2c[nH]c3ccccc23)NC(=O)[C@H](CCCNC(=N)N)NC(=O)[C@@H](Cc2ccccc2)NC(=O)[C@H](Cc2c[nH]cn2)NC1=O
B4: Ac-Arg-c(Cys-His-D-Phe-Arg-Trp-Gaba-Pen)-NH2 (peptide)
chain: Ac-RCH[dF]RW[GABA][Pen]-NH2
modifications: disulfide 2-8
SMILES: CC(=O)N[C@@H](CCCNC(=N)N)C(=O)N[C@H]1CSSC(C)(C)[C@@H](C(N)=O)NC(=O)CCCNC(=O)[C@H](Cc2c[nH]c3ccccc23)NC(=O)[C@H](CCCNC(=N)N)NC(=O)[C@@H](Cc2ccccc2)NC(=O)[C@H](Cc2c[nH]cn2)NC1=O

Target: T1, hMC3-R (human, UniProt P41968)
Test: competition

T1 sequence (P41968 whole entry): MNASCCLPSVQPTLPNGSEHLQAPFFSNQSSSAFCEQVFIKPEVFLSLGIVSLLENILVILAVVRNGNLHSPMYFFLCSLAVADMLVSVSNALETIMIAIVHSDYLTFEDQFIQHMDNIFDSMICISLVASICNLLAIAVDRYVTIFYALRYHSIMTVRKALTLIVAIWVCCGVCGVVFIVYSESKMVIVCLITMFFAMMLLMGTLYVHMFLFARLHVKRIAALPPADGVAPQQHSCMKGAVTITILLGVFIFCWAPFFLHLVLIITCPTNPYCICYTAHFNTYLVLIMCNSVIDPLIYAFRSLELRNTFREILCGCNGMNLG

Binder | Ki [nM]
Ac-C[dA]H[dF]R[2Nal]AC-NH2 (disulfide 1-8 (inferred)) [Ac-c(Cys-D-Ala-His-D-Phe-Arg-2-Nal-Ala-Cys)-NH2] | 4560
[dF]CH[dF]R[Bip][βAla][dC]T-NH2 (disulfide 2-8 (inferred)) [D-Phe-c(Cys-His-D-Phe-Arg-Bip-β-Ala-D-Cys)-Thr-NH2] | 3370
B1 | 98.9
Ac-[Nle]C[3Pal][dF]RW[GABA]C-NH2 (disulfide 2-8) [Ac-Nle-c(Cys-3-Pal-D-Phe-Arg-Trp-Gaba-Cys)-NH2] | 151
B2 | 149
Ac-[Nle]D[dA]H[dF]R[Bal]K-NH2 (lactam 2-8; reading uncertain) [Ac-Nle-c(Asp-D-Ala-His-D-Phe-Arg-Bal-Lys)-NH2] | 445

Target: T2, hMC4-R (human, UniProt P32245)
Test: competition

T2 sequence (P32245 whole entry): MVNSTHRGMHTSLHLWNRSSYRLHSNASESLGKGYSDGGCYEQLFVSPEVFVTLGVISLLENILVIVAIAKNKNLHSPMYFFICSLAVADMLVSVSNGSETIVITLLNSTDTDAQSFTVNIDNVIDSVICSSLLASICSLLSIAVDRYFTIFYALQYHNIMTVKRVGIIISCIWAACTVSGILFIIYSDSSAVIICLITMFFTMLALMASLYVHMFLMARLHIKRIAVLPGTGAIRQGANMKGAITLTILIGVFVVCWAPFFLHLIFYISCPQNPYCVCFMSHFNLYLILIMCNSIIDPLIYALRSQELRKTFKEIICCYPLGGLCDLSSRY

Binder | Ki [nM]
[dF]CH[dF]R[Bip][βAla][dC]T-NH2 (disulfide 2-8 (inferred)) [D-Phe-c(Cys-His-D-Phe-Arg-Bip-β-Ala-D-Cys)-Thr-NH2] | 583
[dF]CH[d(Et)Tyr][hArg]W[βAla][dC]T-NH2 (disulfide 2-8 (inferred)) [D-Phe-c(Cys-His-D-(Et)Tyr-hArg-Trp-β-Ala-D-Cys)-Thr-NH2] | 14.7
B1 | 2.55
Ac-[Nle]D[dA]H[dF]R[Bal]AK-NH2 (lactam 2-9; reading uncertain) [Ac-Nle-c(Asp-D-Ala-His-D-Phe-Arg-Bal-Ala-Lys)-NH2] | 21.3
B2 | 3.01
Ac-[Nle]D[dA]H[dF]R[Bal]K-NH2 (lactam 2-8; reading uncertain) [Ac-Nle-c(Asp-D-Ala-His-D-Phe-Arg-Bal-Lys)-NH2] | 50.6

Target: T3, hMC5-R (human, UniProt P33032)
Test: competition

T3 sequence (P33032 whole entry): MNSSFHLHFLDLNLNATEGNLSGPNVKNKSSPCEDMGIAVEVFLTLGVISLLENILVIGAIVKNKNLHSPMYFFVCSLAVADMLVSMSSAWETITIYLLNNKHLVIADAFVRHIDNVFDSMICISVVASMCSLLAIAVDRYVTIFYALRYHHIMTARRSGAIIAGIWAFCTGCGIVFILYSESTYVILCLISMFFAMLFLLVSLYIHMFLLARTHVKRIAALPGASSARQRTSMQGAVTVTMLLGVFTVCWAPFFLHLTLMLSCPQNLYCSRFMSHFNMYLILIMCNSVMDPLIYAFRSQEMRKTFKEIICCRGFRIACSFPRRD

Binder | Ki [nM]
B3 | 538
B4 | 502

Target: T2, hMC4-R
Test: competition
Remark: another data set of the same source

Binder | Ki [nM]
B3 | 11
B4 | 4.57

Target: T3, hMC5-R
Test: competition
Remark: another data set of the same source

Binder | Ki [nM]
Ac-C[dA]H[dF]R[2Nal]AC-NH2 (disulfide 1-8 (inferred)) [Ac-c(Cys-D-Ala-His-D-Phe-Arg-2-Nal-Ala-Cys)-NH2] | 8810
[dF]CH[dF]R[Bip][βAla][dC]T-NH2 (disulfide 2-8 (inferred)) [D-Phe-c(Cys-His-D-Phe-Arg-Bip-β-Ala-D-Cys)-Thr-NH2] | 1130
B1 | 4.19
Ac-[Nle]C[3Pal][dF]RW[GABA]C-NH2 (disulfide 2-8) [Ac-Nle-c(Cys-3-Pal-D-Phe-Arg-Trp-Gaba-Cys)-NH2] | 92.6
Ac-[Nle]D[dA]H[dF]R[Bal]AK-NH2 (lactam 2-9; reading uncertain) [Ac-Nle-c(Asp-D-Ala-His-D-Phe-Arg-Bal-Ala-Lys)-NH2] | 11.1
B2 | 339
Ac-[Nle]D[dA]H[dF]R[Bal]K-NH2 (lactam 2-8; reading uncertain) [Ac-Nle-c(Asp-D-Ala-His-D-Phe-Arg-Bal-Lys)-NH2] | 4300
CEHXRXAC (cyclic, D-residues) [Ac-c(Cys-Glu-His-D-Phe-Arg-2-Nal-Ala-Cys)-NH2] | 1460

Target: T4, hMC1-R (human, UniProt Q01726)
Test: competition

T4 sequence (Q01726 whole entry): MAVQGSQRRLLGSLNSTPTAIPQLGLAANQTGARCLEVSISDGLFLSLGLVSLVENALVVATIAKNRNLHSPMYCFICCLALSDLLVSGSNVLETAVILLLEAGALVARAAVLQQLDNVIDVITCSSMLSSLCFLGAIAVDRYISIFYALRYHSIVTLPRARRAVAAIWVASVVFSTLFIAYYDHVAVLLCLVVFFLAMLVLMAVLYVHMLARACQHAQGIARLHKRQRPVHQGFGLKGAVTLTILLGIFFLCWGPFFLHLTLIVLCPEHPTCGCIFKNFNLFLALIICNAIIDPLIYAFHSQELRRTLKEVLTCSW

Binder | Ki [nM]
B3 | 3.93
B4 | 1.81

Target: T4, hMC1-R
Test: competition
Remark: another data set of the same source

Binder | Ki [nM]
Ac-[Nle]DH[d2Nal]RWAK-NH2 (lactam 2-8) [Ac-Nle-c(Asp-His-D-2-Nal-Arg-Trp-Ala-Lys)-NH2] | 1.17
Ac-C[dA]H[dF]R[2Nal]AC-NH2 (disulfide 1-8 (inferred)) [Ac-c(Cys-D-Ala-His-D-Phe-Arg-2-Nal-Ala-Cys)-NH2] | 132
[dF]CH[dF]R[Bip][βAla][dC]T-NH2 (disulfide 2-8 (inferred)) [D-Phe-c(Cys-His-D-Phe-Arg-Bip-β-Ala-D-Cys)-Thr-NH2] | 5.8
B1 | 0.659
Ac-[Nle]C[3Pal][dF]RW[GABA]C-NH2 (disulfide 2-8) [Ac-Nle-c(Cys-3-Pal-D-Phe-Arg-Trp-Gaba-Cys)-NH2] | 21.1
Ac-[Nle]D[dA]H[dF]R[Bal]AK-NH2 (lactam 2-9; reading uncertain) [Ac-Nle-c(Asp-D-Ala-His-D-Phe-Arg-Bal-Ala-Lys)-NH2] | 4.89
Ac-[Nle]D[dA]H[dF]R[Bal]K-NH2 (lactam 2-8; reading uncertain) [Ac-Nle-c(Asp-D-Ala-His-D-Phe-Arg-Bal-Lys)-NH2] | 4.12
CEHXRXAC (cyclic, D-residues) [Ac-c(Cys-Glu-His-D-Phe-Arg-2-Nal-Ala-Cys)-NH2] | 262

Target: T1, hMC3-R
Test: competition
Remark: another data set of the same source

Binder | Ki [nM]
B3 | 172
B4 | 20.5

From patent US20170240595 (published 2017)
